Read-outs that look alike come from different tables or passages of the source.
T1: Def1_(1-500), recombinant (Def1_(1-500)-His) (S. cerevisiae, UniProt P35732 1-500)
T1 sequence (looked up): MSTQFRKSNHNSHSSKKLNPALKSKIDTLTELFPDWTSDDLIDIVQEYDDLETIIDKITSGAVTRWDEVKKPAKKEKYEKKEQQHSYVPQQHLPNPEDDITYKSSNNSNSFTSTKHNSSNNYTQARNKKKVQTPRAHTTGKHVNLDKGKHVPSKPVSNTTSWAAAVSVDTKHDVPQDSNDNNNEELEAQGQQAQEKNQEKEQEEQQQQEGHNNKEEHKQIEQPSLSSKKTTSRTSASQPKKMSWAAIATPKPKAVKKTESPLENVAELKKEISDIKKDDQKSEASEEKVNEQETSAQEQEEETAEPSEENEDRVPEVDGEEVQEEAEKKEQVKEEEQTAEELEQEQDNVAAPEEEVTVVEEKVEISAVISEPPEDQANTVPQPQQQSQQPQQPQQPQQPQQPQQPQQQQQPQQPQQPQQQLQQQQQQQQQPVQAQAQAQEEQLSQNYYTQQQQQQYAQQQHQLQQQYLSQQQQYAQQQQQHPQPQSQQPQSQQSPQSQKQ

B1: GST-Ela1_(250–379) (domain or fragment, S. cerevisiae, UniProt P53861 250-379, looked up)
chain: VNRQMDNVTAEKKDVTQPITPVKKRRSESPSIFLNRKKPALFRPTPKTNAAGSRPHTTAITNDHRTTSHPYPHKDVVTSISSVTANPVTKGHKKKKSGIFVRNAGSDGDSFPHVTATGPTTRPYIYEPRK
B2: recombinant Ela1-Elc1 heterodimer (full-length His-Ela1 with Elc1) (complex, S. cerevisiae)
chain 1: MKSLQTLCEISLMRNHSNIQSVSNVPYHLLKRILQKVKIPQLLKLEKSNVLLIFDDDELWLEFLRQDFPTNVHEQFVSKRDIICKYYFDFVKENDIELYHSNQDLLKSCVRQSVVKDIRNNKYRIPYRMLYSKYQQEVEKKQEESAERLRLEMQKLQQEREKKQTIVVDHTVYFKKRNTKKTTRLHNEPHSQLYMKSLKDHESRLKHFKDGGFNIAKRHAQRVAFGGQAGGQSSSPKKGPLSIKPEPVKVNRQMDNVTAEKKDVTQPITPVKKRRSESPSIFLNRKKPALFRPTPKTNAAGSRPHTTAITNDHRTTSHPYPHKDVVTSISSVTANPVTKGHKKKKSGIFVRNAGSDGDSFPHVTATGPTTRPYIYEPRK
chain 2: MSQDFVTLVSKDDKEYEISRSAAMISPTLKAMIEGPFRESKGRIELKQFDSHILEKAVEYLNYNLKYSGVSEDDDEIPEFEIPTEMSLELLLAADYLSI

Columns and labels:
[1] = target: T1, Def1_(1-500), recombinant …; test: pull-down
[2] = target: T1, Def1_(1-500), recombinant …; test: pull-down; remark: listed apart in the source

Binder | binding result [1] | binding result [2]
B1 | binds | –
B2 | – | binds

Source: paper PMC3778974 (Cell, 2013)
